Measurements taken from patent US20200181597A1, “Composition and Application of Arginine-depleting Agents for Cancer, Obesity, Metabolic Disorders, and Related Complications and Comorbidities” (THE HONG KONG POLYTECHNIC UNIVERSITY, priority 2018, published 2020).
Where “and” joins values, the source holds several entries; their conditions need not be identical. Equal entries are not always repeated.

Key:
[1] = test system: mouse 3T3-L1 preadipocytes; assay: 3T3-L1 preadipocyte differentiation (oil red O, qRT-PCR); assay type: cell-based; conditions: for adipogenesis and lipogenesis in 3T3-L1 cells (oil red O): added to culture medium, 6 days of differentiation
Description: FIG. 23 illustrates that arginine depletion by adding N-ABD094-rhArg (SEQ ID NO: 50) (rhArg), bovine arginase or native arginine deiminase (ADI) to the culture medium, or using arginine-free medium inhibited the differentiation of mouse 3T3-L1 preadipocytes into adipocytes. […] (*The culture medium contains 0.4 mM L-arginine and can be converted into 0.4 mM L-ornithine and 0.4 mM urea by arginase, or 0.4 mM L-citrulline by ADI.). Cells grown in culture medium without addition of arginine depleting agents or metabolic products of arginase/ADI served as the control. Lipids in cells were stained with oil red O at 6 days after exposure to specific differentiation-inducing factors added to the medium.
FIG. 24 illustrates that N-ABD094-rhArg (SEQ ID NO: 50) could suppress adipogenic and lipogenic genes in 3T3-L1 preadipocytes. Mouse 3T3-L1 preadipocytes were cultured for 6 days in medium supplemented with specific factors to induce differentiation into adipocytes (differentiated). Cells grown in medium without these factors remained undifferentiated. The medium was added with 2U/mL N-ABD094-rhArg (SEQ ID NO: 50) (rhArg). Cells grown in medium without the addition of N-ABD094-rhArg served as the control. The mRNA expression levels of several crucial (A) transcriptional regulators of adipogenesis, and (B) enzymes in lipogenic pathways were determined by real-time qRT-PCR, and expressed relative to the undifferentiated (control) group, which is set as 1. *P<0.05, one-way ANOVA followed by Fisher's LSD. Data are expressed as mean±SEM, n=3 for each group.
FIG. 25 illustrates the response of 3T3-L1 preadipocytes to various concentrations of arginine Mouse 3T3-L1 preadipocytes were cultured in arginine-free medium with or without addition of varying concentrations of L-arginine for 6 days. Cells cultured in normal arginine-containing medium supplemented with differentiation inducing factors served as the positive (+ve) control of differentiation, while cells cultured in normal arginine-containing medium without supplementation of differentiation inducing factors served as the negative (−Ve) control of differentiation. One group of cells was cultured in normal arginine-containing medium supplemented with differentiation inducing factors and treated with 5U/mL N-ABD094-rhArg (SEQ ID NO: 50) (rhArg) to inhibit differentiation. (A) Cells were stained for lipids with oil red O, and staining intensity was quantified by measuring optical density, which is expressed as the percentage against the +ve control group. (B) The mRNA levels of several crucial lipogenesis related genes are expressed relative to cells cultured in arginine-free medium, which is set as 1. Data are expressed as mean±SEM, n=3 for each group.
To test the effect of N-ABD094-rhArg (SEQ ID NO: 50) on fat cells, mouse 3T3-L1 preadipocytes were used, which are commonly employed as cell-based model for studying adipogenesis [Green and Meuth, 1974, Cell 3:127-133].

[2] = Arginase specific activity, DAMO colorimetric assay; assay type: biochemical; conditions: 37° C., pH 7.4, purified preparation
From the text: The arginase activity of the fusion proteins described herein can be substantially the same, lower, or higher than the activity of the arginase polypeptide from which it is derived. One unit of arginase activity is defined as the amount of fusion protein [e.g., BHA (SEQ ID NO; 75), BAH (SEQ ID NO: 76), N-ABD-rhArg (SEQ ID NO: 49), or N-ABD094-rhArg (SEQ ID NO: 50)] or arginase [e.g., BCA (SEQ ID NO: 70)] that catalyzes the production of 1 μmol of urea per min under standard assay conditions. The specific activity of the enzyme is expressed as activity units per mg of protein. Under standard diacetylmonoxime (DAMO) assay conditions (37° C., pH 7.4), the fusion proteins can have a specific activity that is about 5%, about 10%, about 15%, about 20%, about 25% about 30%, about 35% or about 40% lower or higher than the corresponding arginase polypeptide which it incorporates. In certain embodiments, fusion proteins can have a specific activity that is about 5% to about 40%, about 10% to about 40%, about 10% to about 35%, about 10% to about 30%, about 20% to about 30%, about 20% to about 35%, about 15% to about 30%, about 15% to about 25%, or about 10% to about 20% lower or higher than the corresponding arginase polypeptide which it incorporates.
One unit of enzyme activity is defined as the amount of enzyme (BCA, BHA or BAH) that catalyzes the production of 1 μmol urea per min under standard assay conditions. Specific activity of the enzyme is expressed as activity units per mg of protein.
Briefly, a serial dilution of 0.3 mL BCA solutions together with 0.15 mL water and 720 mM arginine substrate at pH 7.4 was pre-incubated separately at 37° C. for 10 min. The enzymatic reaction was carried out by adding 0.3 mL arginine substrate to the pre-incubated enzyme solutions. […]
The urea formed from the above reaction was quantified using the DAMO direct colorimetric method described by World Health Organization (WHO). […] The absorbance at 540 nm was measured. […]

[3] = DIO mice treated with PEGylated His-rhArg; assay type: in vivo, C57BL/6J male mice
Description: Production of PEGylated His-rhArg (SEQ ID NO: 101) is described in Example 30. C57BL/6J male mice with pre-existing diet-induced obesity (DIO) received i.p. injection of 300U PEGylated His-rhArg [SEQ ID NO: 101], or saline as vehicle control, at 7-day intervals for 5 weeks, while continuously being fed a HFD. […] Regular monitoring of plasma arginine concentrations confirmed that arginine remained at levels below the detection limit of the Biochrom 30 Amino Acid Analyzer (3 μM) throughout the study.

[4] = test system: 4T1 breast cancer allograft; assay: 4T1 breast cancer allograft study; assay type: in vivo, female nude mice; conditions: 500U once per week
Description: In another 4T1 breast cancer allograft study, female nude mice (5-6 weeks of age) were used. They were kept in groups of five per cage and provided food and water ad libitum. Cells of 4T1 breast cancer ([…]) were injected subcultuaneously into the right flank of the mice. […] There were one control group (n=8) and three experimental groups, including 500U PEGylated His-rhArg (SEQ ID NO: 101) (n=8), 500U N-ABD-rhArg (SEQ ID NO: 49) (n=6) and 250U N-ABD-rhArg (SEQ ID NO: 49) (n=8). Mice in the control group were injected with 1×PBS weekly. For the 500U ABD-rhArg group and the 250U ABD-rhArg group, mice were injected with 500U and 250U ABD-rhArg once a week, respectively; one group was injected with 500U PEG-rhArg once per week. The mice were sacrificed after 24 days of inoculation (i.e. 14 days after starting of experiment) because of necrosis of tumor in PBS control group. After sacrificing, the mice were dissected. Tumors were collected from the mice and measured their weight. Lungs were also collected and washed with 1×PBS. The lungs were fixed in Bouin's solution overnight and washed with 1×PBS after fixation. Lung metastatic nodules were counted.

[5] = test system: circulating arginine; conditions: i.p., cited from earlier work

Molecule: NC(=O)NCCC[C@H](N)C(=O)O [L-citrulline]
- adipogenesis and lipogenesis in 3T3-L1 cells (oil red O) [1]: could not inhibit

Molecule: N=C(N)NCCC[C@H](N)C(=O)O [L-arginine]
- threshold concentration for activation of Cebpa, Pparg and Scd1 ([1]; arginine-free medium supplemented with L-arginine, 6 days): 10 to 40 µM

Molecule: NCCC[C@H](N)C(=O)O [L-ornithine]
- adipogenesis and lipogenesis in 3T3-L1 cells (oil red O) [1]: could not inhibit

Molecule: NC(N)=O [urea]
- adipogenesis and lipogenesis in 3T3-L1 cells (oil red O) [1]: could not inhibit

B1: PEGylated His-rhArg (conjugate)
chain: MHHHHHHMSAKSRTIGIIGAPFSKGQPRGGVEEGPTVLRKAGLLEKLKEQECDVKDYGDLPFADIPNDSPFQIVKNPRSVGKASEQLAGKVAEVKKNGRISLVLGGDHSLAIGSISGHARVHPDLGVIWVDAHTDINTPLTTTSGNLHGQPVSFLLKELKGKIPDVPGFSWVTPCISAKDIVYIGLRDVDPGEHYILKTLGIKYFSMTEVDRLGIGKVMEETLSYLLGRKKRPIHLSFDVDGLDPSFTPATGTPVVGGLTYREGLYITEEIYKTGLLSGLDIMEVNPSLGKTPEEVTRTVNTAVAITLACFGLAREGNHKPIDYLNPPK
modifications: PEGylated; His-rhArg, Synthesized in Lab
- Specific activity [2]: 245 U/mg
- Specific activity ([2]; listed as PEGylated His-rhArg batch 3): 189 U/mg and 213 U/mg
- bodyweight after treatment ([3]; 300U i.p. at 7-day intervals for 5 weeks, HFD continued): 30 g
- weight of liver, kidney, pancreas and heart vs vehicle-treated DIO mice ([3]; 300U weekly): significantly lower
- weight of fat pad at visceral and subcutaneous depots ([3]; 300U weekly, end of study): significantly reduced
- plasma arginine concentrations throughout the study ([3]; 300U weekly, Biochrom 30 detection limit): < 3 µM
- fasting blood glucose levels vs vehicle-treated DIO mice ([3]; two weeks after treatment): lower
- insulin sensitivity (ITT) vs vehicle-treated DIO mice ([3]; two weeks after treatment): significant increase
- growth of 4T1 solid tumor [4]: inhibited the growth of the aggressive 4T1 solid tumor significantly
- metastasis nodules from the lungs vs control group [4]: very significantly reduced

B2: PEGylated rhArg (conjugate, UniProt P05089 1-322, looked up)
Arginase-1: MSAKSRTIGIIGAPFSKGQPRGGVEEGPTVLRKAGLLEKLKEQECDVKDYGDLPFADIPNDSPFQIVKNPRSVGKASEQLAGKVAEVKKNGRISLVLGGDHSLAIGSISGHARVHPDLGVIWVDAHTDINTPLTTTSGNLHGQPVSFLLKELKGKIPDVPGFSWVTPCISAKDIVYIGLRDVDPGEHYILKTLGIKYFSMTEVDRLGIGKVMEETLSYLLGRKKRPIHLSFDVDGLDPSFTPATGTPVVGGLTYREGLYITEEIYKTGLLSGLDIMEVNPSLGKTPEEVTRTVNTAVAITLACFGLAREGNHKPIDYLNPPK
modifications: PEGylated
- time circulating arginine below detection limit (3 μM) ([5]; 1,500 U per rat (6 U/g)): 6 days

B3: native rhArg: native recombinant human arginase (Tsui et al.) (protein, UniProt P05089 1-322, looked up)
Arginase-1: MSAKSRTIGIIGAPFSKGQPRGGVEEGPTVLRKAGLLEKLKEQECDVKDYGDLPFADIPNDSPFQIVKNPRSVGKASEQLAGKVAEVKKNGRISLVLGGDHSLAIGSISGHARVHPDLGVIWVDAHTDINTPLTTTSGNLHGQPVSFLLKELKGKIPDVPGFSWVTPCISAKDIVYIGLRDVDPGEHYILKTLGIKYFSMTEVDRLGIGKVMEETLSYLLGRKKRPIHLSFDVDGLDPSFTPATGTPVVGGLTYREGLYITEEIYKTGLLSGLDIMEVNPSLGKTPEEVTRTVNTAVAITLACFGLAREGNHKPIDYLNPPK
- circulating arginine within 3 hour of injection ([5]; 7,500 U/rat): ~20 µM
- time for arginine to return to basal level post-injection ([5]; 7,500 U/rat): ~2 days
